Test results as given in the supplement of paper PMC10567573.
± gives the standard deviation.

Test: protein stability index of a GFP-peptide fusion (GPS, HEK-293T) (PSI 1-6); higher = more stable
[1] = treatment: DMSO, c terminus: a fixed tail appended
[2] = treatment: MLN4924 1 uM, 8 h, c terminus: a fixed tail appended
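Note: 24-mer peptide tiles fused after GFP, lentivirally expressed, FACS-sorted into six equal bins by GFP/DsRed ratio, decoded by Illumina sequencing, PSI is the read-weighted mean bin number.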

Row | Sequence | protein stability index [1] | protein stability index [2] | protein stability index (treatment: DMSO, c terminus: native) | protein stability index (treatment: MLN4924 1 uM, 8 h, c terminus: native)
1 | RVSRKPTAAMRCMCPLYDPNRQLW [GAN] | 2.48 ± 0.67 | 2.34 ± 0.47 | – | –
2 | NYSSSQDALISVSYTIITPLFNPM [OR10K2] | 3.07 ± 0.46 | 2.92 ± 0.33 | – | –
3 | DEIYRVLRYVNSTRAPQRAHEVLQ [FBXO28] | 2.43 ± 0.28 | 2.44 ± 0.33 | – | –
4 | GSPVSSWILLAESNSADDETDDPR [OAS1] | 5.02 ± 0.27 | 4.99 ± 0.39 | – | –
5 | EMIQTSKTEITDLRRTMQELEIEL [KRT15] | 3.65 ± 0.25 | 3.65 ± 0.13 | – | –
6 | KILGYLNTNVLSRDLIPPHVNFSH [SLC6A17] | 2.2 ± 0.33 | 2.375 ± 0.022 | – | –
7 | VQVSPEFKDSAGKSPTGLKLKNDT [ZNF75A] | 4.96 ± 0.23 | 4.91 ± 0.15 | – | –
8 | VDHHGTAQLQALRQKEVDFCISLL [INTS3] | 2.23 ± 0.2 | 2.35 ± 0.45 | – | –
9 | DRDAEDQNRYLDGMVRAHGVRVSV [BET1L] | 3.85 ± 0.22 | 3.87 ± 0.29 | – | –
10 | EAGYYFFNGNYKVDSPKNFNIAGT [ADAMTSL2] | 2.34 ± 0.35 | 2.44 ± 0.31 | – | –
11 | LPLALYTATFAVHFMVLSKSGPGD [POMT2] | 3.34 ± 0.33 | 3.01 ± 0.61 | – | –
12 | VTGREGFPTDAPYPTTLGKDRECQ [ZNF8] | 4.74 ± 0.13 | 4.8 ± 0.32 | – | –
13 | LPPVSTSFTTGGLRIPFPRDCGEE [TNXB] | 4.62 ± 0.27 | 4.43 ± 0.18 | – | –
14 | TQHNFQEVMESEEFMLLPANQLID [KLHL20] | 4.43 ± 0.18 | 4.66 ± 0.24 | – | –
15 | MDEISEKLKKGICEALEDSDGRQD [MATN2] | 5.42 ± 0.25 | 5.4 ± 0.17 | – | –
16 | IVTVHYGCASFIYLRPQSNYSSSQ [OR10K2] | 2.92 ± 0.39 | 2.95 ± 0.56 | – | –
17 | SGSRPRKPPPRKHTRSWAVLKLLL [LRRC59] | 2.39 ± 0.37 | 2.31 ± 0.28 | – | –
18 | QLKAVHEQLAALSQAPVNKPKKKK [BRD3] | 4.51 ± 0.44 | 4.6 ± 0.19 | – | –
19 | LLKIHEVSTVSHADADCFVCVFLS [CASP6] | 2.4 ± 0.17 | 2.4 ± 0.41 | – | –
20 | IPAVGSSLSEALDLIESDPDAWCD [MYBL2] | 4.47 ± 0.58 | 4.58 ± 0.23 | – | –
21 | ADFGLARIYSYQMALTPVVVTLWY [CDK4] | 3.52 ± 0.99 | 2.78 ± 0.81 | – | –
22 | TCLMISCYKGHKEIAQYLLEKGAD [FEM1C] | 2.29 ± 0.39 | 2.05 ± 0.27 | – | –
23 | AAAHWYGGAEMRTQHWPIRLDGQQ [MYORG] | 2.86 ± 0.15 | 2.79 ± 0.14 | – | –

Row | Sequence | protein stability index [1] | protein stability index [2] | protein stability index (treatment: DMSO, c terminus: native) | protein stability index (treatment: MLN4924 1 uM, 8 h, c terminus: native)
24 | HAVVEVEDVPLAAKLVDLPCVIES [TAF7L] | 3.86 ± 0.28 | 4.03 ± 0.17 | – | –
25 | LLSTSLDAKDELEERLERCMSIVT [INTS3] | 3.38 ± 0.22 | 3.51 ± 0.37 | – | –
26 | VTGYGINGTGDSNDFWRIEVVNRK [POMT2] | 3.29 ± 0.21 | 3.39 ± 0.17 | – | –
27 | FKDKLEETKGQINNSIKDLTDGHF [SERPINB5] | 4.42 ± 0.2 | 4.5 ± 0.2 | – | –
28 | SLLGDDVFSTMAGLEEADAEVSVI [FBF1] | 3.56 ± 0.26 | 3.5 ± 0.22 | – | –
29 | AGKQRMKEKEQENERKVAQLAEEN [DDIT3] | 5.29 ± 0.41 | 5.49 ± 0.43 | – | –
30 | LGLNAAFWFFALTSLRLVFLLAFG [RETREG3] | 3.06 ± 0.41 | 3.35 ± 1.4 | – | –
31 | VASGYHYGVASCEACKAFFKRTIQ [ESRRA] | 2.29 ± 0.27 | 2.47 ± 0.48 | – | –
32 | RRDAEEWFHAKSAELNKEVSTNTA [KRT13] | 4.71 ± 0.25 | 4.79 ± 0.1 | – | –
33 | LFHRLDEDWDSALFAELGYFTDTD [ATF6] | 2.91 ± 0.48 | 3.02 ± 0.26 | – | –
34 | RGRPRKLSKEYWDCLEGKKSKHAP [ELF3] | 4.18 ± 0.27 | 4.19 ± 0.47 | – | –
35 | PDTQALCHHLPVIRQLATSGRFIV [SMG5] | 2.07 ± 0.45 | 2.23 ± 0.44 | – | –
36 | FKAYIKIYQGEDLPHPKSMLQATA [ATL3] | 2.78 ± 0.35 | 2.5 ± 0.57 | – | –
37 | LPVYLKKDPAYFYGYVYFRQVRDK [DENND6A] | 2.59 ± 0.57 | 2.53 ± 0.47 | – | –
38 | AIRPENRAPGAGLGQDRQVPLWGQ [EMD] | 3.5 ± 0.21 | 3.45 ± 0.18 | – | –
39 | GGYRPAEDKIFPVPEEPPVKKLMR [ZBED1] | 3.99 ± 0.13 | 4.36 ± 0.3 | – | –
40 | TGPPCDRQWTVSDWGPCSGSCGQG [ADAMTSL2] | 3.67 ± 0.45 | 3.51 ± 0.24 | – | –
41 | SVLKRPERSQEESPPGSTKRRKSM [CDC25A] | 5.29 ± 0.29 | 5.5 ± 0.2 | – | –
42 | SMFTLPVVYVKHQAQIDQYLGLVR [RTN1] | 2.5 ± 0.49 | 2.23 ± 0.41 | – | –
43 | SSKLVTKKAPQPAKPRLAERMTTR [HDAC6] | 4.32 ± 0.14 | 4.47 ± 0.38 | – | –
44 | QNLNDRLASYLEKVRALEEANADL [KRT13] | 4.13 ± 0.17 | 3.98 ± 0.39 | – | –
45 | ETPNPPQSAQIACSSPSVVASLPL [MAGEA10] | 4.62 ± 0.25 | 4.59 ± 0.38 | – | –
46 | PSEEYGKILEVVGRYSVHNAGISF [MLH1] | 2.32 ± 0.36 | – | – | –

Row | Sequence | protein stability index [1] | protein stability index [2] | protein stability index (treatment: DMSO, c terminus: native) | protein stability index (treatment: MLN4924 1 uM, 8 h, c terminus: native)
47 | SVFLLTLSIAFICCAQVKVSHLL [PHTF1] | – | – | 3.3 ± 0.35 | 3.23 ± 0.53
48 | ALQPSPSIRLPLDAPLPGSKAKPK [TBC1D10A] | 4.19 ± 0.21 | 4.32 ± 0.34 | – | –
49 | DKALMIAMEYAPGGTLAEFIQKRC [NEK8] | 2.39 ± 0.26 | 2.54 ± 0.17 | – | –
50 | YVHDPECVATTGDITVSVSTSFLP [FBXO3] | 2.46 ± 0.26 | 2.95 ± 0.15 | – | –
51 | VSQAVEGPEELSRSSSESKLPSSG [RIPK4] | 5.21 ± 0.62 | 5.06 ± 0.58 | – | –
52 | VDKYVNSFVLKNFPALLSTGEFLK [KLHL13] | 2.01 ± 0.45 | 2.1 ± 0.6 | – | –
53 | HTCLMISCYKGHREIARYLLEQGA [FEM1A] | 2.46 ± 0.5 | 2.38 ± 0.35 | – | –
54 | VRTLSEPPDKGEEQVNFCESSNDF [ZBTB22] | 5.14 ± 0.25 | 5.26 ± 0.39 | – | –
55 | EDSSLPSINALLQAEVLSRQITSP [HNF4A] | 4.25 ± 0.16 | 4.27 ± 0.093 | – | –
56 | YQAFRECTLETTVHASGWNKILVP [BCL2L13] | 1.93 ± 0.33 | 2.32 ± 0.22 | – | –
57 | FEFQVRVCDSCYDSIKDEDRTSLA [WDFY1] | 2.78 ± 0.23 | 3 ± 0.61 | – | –
58 | EFTELLKVMIHPDPERRPSAMALV [WEE1] | 2.23 ± 0.35 | 2.06 ± 0.23 | – | –
59 | REKQLSHSLRAVSTDPPHHDHHDE [BEX1] | 5.37 ± 0.4 | 5.382 ± 0.051 | – | –
60 | EPEAASSRGSPVRVKREFEPASAR [USP39] | 5.04 ± 0.16 | 5.11 ± 0.16 | – | –
61 | YGRDSFVRLLLEFKAEVDPLSDKG [ASB7] | 2.65 ± 0.74 | 2.37 ± 0.28 | – | –
62 | TALGDKKSLEGDLEDLKDQIAQLE [LMNB1] | 5.21 ± 0.24 | 5.27 ± 0.24 | – | –
63 | HLQEYAGNFQGIRFHYDRNPGTDA [FATE1] | 3.37 ± 0.39 | 3.46 ± 0.3 | – | –
64 | DVKAMGPLVLTEVLFNEKIREQIK [EIF5] | 2.39 ± 0.11 | 2.28 ± 0.34 | – | –
65 | IMGNLLIIVTIMASQSLGSPMYFF [OR4A15] | 3.35 ± 0.29 | 3.52 ± 0.3 | – | –
66 | NGRKIMGKEVKVNWATTPSSQKKD [TIA1] | 4.43 ± 0.077 | 4.55 ± 0.22 | – | –
67 | PLEPEDALSDAEFEGEGDYEEGMY [P3H4] | 5.59 ± 0.3 | 5.44 ± 0.34 | – | –
68 | HLDHYYQEELPALLKALVSELSEH [FCHSD1] | 2.3 ± 0.079 | 2.15 ± 0.37 | – | –
69 | IHFDSYITCVSGAIVDLISRQYDK [FBXO33] | 2.7 ± 0.47 | 2.81 ± 0.53 | – | –

Row | Sequence | protein stability index [1] | protein stability index [2] | protein stability index (treatment: DMSO, c terminus: native) | protein stability index (treatment: MLN4924 1 uM, 8 h, c terminus: native)
70 | FFLFIGVILFSSAVYFAEADDPTS [KCNA3] | 2.8 ± 0.1 | 3.09 ± 0.2 | – | –
71 | ATFHVGGGPAQNAPHQQPPAPPSD [TFE3] | 4.86 ± 0.16 | 4.84 ± 0.26 | – | –
72 | TICYCPEKGTWTELEGDVAEPLAG [KLHL14] | 4.39 ± 0.18 | 4.59 ± 0.26 | – | –
73 | AREGLAAPPRRLRSRKVSCPLTRS [FCHO1] | 3.93 ± 0.12 | 4.13 ± 0.35 | – | –
74 | ECSNIPLSQPQQGEAMLANFKPRG [GAN] | 3.5 ± 0.9 | 3.97 ± 0.34 | – | –
75 | VNYSDPNDADKAINTLNGLKLQTK [ELAVL3] | 4.66 ± 0.2 | 4.62 ± 0.12 | – | –
76 | STIVVMLTKLREMGREKCHQYWPA [PTPRD] | 2.55 ± 0.22 | 2.63 ± 0.44 | – | –
77 | GESDNPLRFTSGLVVALDVDATLE [INTS4] | 3.23 ± 0.37 | 3.54 ± 0.15 | – | –
78 | SIAPPEAEGVVLSDSPDAADSTSF [PPTC7] | 5.34 ± 0.61 | 5.29 ± 0.76 | – | –
79 | IGGSGFLGQHMVEQLLARGYAVNV [NSDHL] | 2.16 ± 0.054 | 2.23 ± 0.2 | – | –
80 | PTQEEWRQVVDILWSDPMAQEGCK [PPEF2] | 3.96 ± 0.39 | 4.21 ± 0.079 | – | –
81 | MEIATYRKLLESEECRMSGEFPSP [KRT71] | 3.91 ± 0.53 | 4.07 ± 0.36 | – | –
82 | GDIHLSPEEPAASTDPNIVRKKER [TAF7L] | 5.38 ± 0.32 | 5.43 ± 0.27 | – | –
83 | IKMILKMVQLDSIEDLEVTCTWKL [PRAME] | 2.89 ± 0.29 | 2.99 ± 0.42 | – | –
84 | LSALLRATPGEYSVNICGMNEHPV [SPAG8] | 2.27 ± 0.27 | 2.42 ± 0.16 | – | –
85 | TVMILPVTHTEISPEQQFDRSVQR [TMEM175] | 3.64 ± 0.28 | 3.76 ± 0.16 | – | –
86 | LAVFARCLAGCEGAHEQVDFKDFY [P3H4] | 1.94 ± 0.45 | 2.02 ± 0.31 | – | –
87 | STVGKLCRLINEDVNEQVMQVLGP [CEP70] | 3.08 ± 0.19 | 3.2 ± 0.25 | – | –
88 | FGCFFYVYYIFERLCAPLFRNIKQ [SOAT1] | 2.37 ± 0.2 | 2.69 ± 0.068 | – | –
89 | EPLMTNKLSETFLQIYQYVPKDQR [DLC1] | 3.05 ± 0.33 | 3.47 ± 0.47 | – | –
